Source: PMC11020753, “Contribution of amino acids in the active site of dipeptidyl peptidase 4 to the catalytic action of the enzyme” (PLOS ONE, 2024)
Non-standard residues stand in square brackets, D forms with d. Residues, ends and D or L forms follow the SMILES beside them. Tle = CC(C)(C)[C@H](N)C(=O)O

Legend:
Type in all cases: biochemical
DP4 variant N710Q [1] = target: T1, DP4 variant N710Q (Homo sapiens, UniProt P27487, N710Q); assay: IC50 determination with substrate Gly-Pro-AMC; conditions: bounds given in mM, 100 mM HEPES-buffer (pH 7.6), T = 30 °C, substrate Gly-Pro-AMC in the range of Km
T1 construct: His(6)-37-766 hDP4 containing fractions were concentrated to 1 ml; made in house; host or cells: Pichia pastoris X-33 (vector pPICZα C, secreted)
Protocol: (§1) The reactions were performed in 100 mM HEPES buffer, pH 7.6 at 30°C in a total assay volume of 270 μl by using 96-well plates. […] Fluorescence was detected with a […]luor Plus (TECAN) at an excitation wavelength of 380 nm and an emission wavelength of 465 nm.

DP4 variant E206A [2] = target: T2, DP4 variant E206A (Homo sapiens, UniProt P27487, E206A); assay: IC50 determination with substrate Gly-Pro-AMC; conditions: bounds given in mM, 100 mM HEPES-buffer (pH 7.6), T = 30 °C, substrate Gly-Pro-AMC in the range of Km
T2 construct: His(6)-37-766 hDP4 containing fractions were concentrated to 1 ml as described above; His6 (N); made in house; host or cells: Pichia pastoris X-33, vector pPICZα C (secreted)
Protocol: as §1

DP4 variant N710A [3] = target: T3, DP4 variant N710A (Homo sapiens, UniProt P27487, N710A); assay: IC50 determination with substrate Gly-Pro-AMC; conditions: 100 mM HEPES-buffer (pH 7.6), T = 30 °C, substrate Gly-Pro-AMC in the range of Km
T3 construct: His(6)-37-766 hDP4 containing fractions were concentrated to 1 ml; made in house; host or cells: Pichia pastoris X-33 (vector pPICZα C, secreted)
Protocol: as §1

DP4 variant R125A [4] = target: T4, DP4 variant R125A (Homo sapiens, UniProt P27487, R125A); assay: IC50 determination with substrate Gly-Pro-AMC; conditions: 100 mM HEPES-buffer (pH 7.6), T = 30 °C, substrate Gly-Pro-AMC in the range of Km
T4 construct: His(6)-37-766 hDP4 containing fractions were concentrated to 1 ml; made in house; host or cells: Pichia pastoris X-33 (vector pPICZα C, secreted)
Protocol: as §1

DP4 variant E205A [5] = target: T5, DP4 variant E205A (Homo sapiens, UniProt P27487, E205A); assay: IC50 determination with substrate Gly-Pro-AMC; conditions: 100 mM HEPES-buffer (pH 7.6), T = 30 °C, substrate Gly-Pro-AMC in the range of Km
T5 construct: His(6)-37-766 hDP4 containing fractions were concentrated to 1 ml as described above; His6 (N); made in house; host or cells: Pichia pastoris X-33, vector pPICZα C (secreted)
Protocol: as §1

DP4 variant N710D [6] = target: T6, DP4 variant N710D (Homo sapiens, UniProt P27487, N710D); assay: IC50 determination with substrate Gly-Pro-AMC; conditions: 100 mM HEPES-buffer (pH 7.6), T = 30 °C, substrate Gly-Pro-AMC in the range of Km
T6 construct: His(6)-37-766 hDP4 containing fractions were concentrated to 1 ml; made in house; host or cells: Pichia pastoris X-33 (vector pPICZα C, secreted)
Protocol: as §1

DP4 variant R125K [7] = target: T7, DP4 variant R125K (Homo sapiens, UniProt P27487, R125K); assay: IC50 determination with substrate Gly-Pro-AMC; conditions: 100 mM HEPES-buffer (pH 7.6), T = 30 °C, substrate Gly-Pro-AMC in the range of Km
T7 construct: His(6)-37-766 hDP4 containing fractions were concentrated to 1 ml; made in house; host or cells: Pichia pastoris X-33 (vector pPICZα C, secreted)
Protocol: as §1

wild type DP4 [8] = target: T8, wild type DP4 (Homo sapiens, UniProt P27487); assay: IC50 determination with substrate Gly-Pro-AMC; conditions: 100 mM HEPES-buffer (pH 7.6), T = 30 °C, substrate Gly-Pro-AMC in the range of Km
T8 construct: His(6)-37-766 hDP4 containing fractions were concentrated to 1 ml; made in house; host or cells: Pichia pastoris X-33 (vector pPICZα C, secreted)
Protocol: as §1

DP4 variant N710Q [9] = target: T1, DP4 variant N710Q; assay: Km and kcat determination by LC/MS-MS assay; conditions: hydrolysis of peptide hormone, 10 mM Tris-buffer (pH 7.6), T = 30 °C
Protocol: (§2) Therefore, DP4 was incubated with different substrate concentrations in 10 mM Tris-buffer pH 7.6 at 30°C. Enzyme concentrations and incubation times were chosen to obtain a linear product formation. After selected time points, samples were taken and the reaction stopped by addition of 19 volumes 0,1% HCOOH. Cleavage products were quantified in the respective samples by LC/MS-MS assay.

DP4 variant E206A [10] = target: T2, DP4 variant E206A; assay: Km and kcat determination by LC/MS-MS assay; conditions: hydrolysis of peptide hormone, 10 mM Tris-buffer (pH 7.6), T = 30 °C
Protocol: as §2

DP4 variant N710A [11] = target: T3, DP4 variant N710A; assay: Km and kcat determination by LC/MS-MS assay; conditions: hydrolysis of peptide hormone, 10 mM Tris-buffer (pH 7.6), T = 30 °C
Protocol: as §2

DP4 variant R125A [12] = target: T4, DP4 variant R125A; assay: Km and kcat determination by LC/MS-MS assay; conditions: hydrolysis of peptide hormone, 10 mM Tris-buffer (pH 7.6), T = 30 °C
Protocol: as §2

DP4 variant E205A [13] = target: T5, DP4 variant E205A; assay: Km and kcat determination by LC/MS-MS assay; conditions: hydrolysis of peptide hormone, 10 mM Tris-buffer (pH 7.6), T = 30 °C
Protocol: as §2

DP4 variant N710D [14] = target: T6, DP4 variant N710D; assay: Km and kcat determination by LC/MS-MS assay; conditions: hydrolysis of peptide hormone, 10 mM Tris-buffer (pH 7.6), T = 30 °C
Protocol: as §2

DP4 variant R125K [15] = target: T7, DP4 variant R125K; assay: Km and kcat determination by LC/MS-MS assay; conditions: hydrolysis of peptide hormone, 10 mM Tris-buffer (pH 7.6), T = 30 °C
Protocol: as §2

wild type DP4 [16] = target: T8, wild type DP4; assay: Km and kcat determination by LC/MS-MS assay; conditions: hydrolysis of peptide hormone, 10 mM Tris-buffer (pH 7.6), T = 30 °C
Protocol: as §2

DP4 variant R125K [17] = target: T7, DP4 variant R125K; assay: Cleavage of peptide hormones by MALDI-TOF mass spectrometry; design: key: +++: hydrolysis is comparable with the data obtained from the wild type enzyme; -: hydrolysis below 0,01% of the wild type enzyme; conditions: T = 37 °C, 100 mM Tris-HCl, pH 7.6, substrate concentration 25 μM
Protocol: (§3) Enzyme concentration 5 x 10^−9 M, substrate concentration 25 μM, reaction time 1–3 hours, depending on the respective hydrolysis rate. Reactions were stopped by addition of 1 volume DHAP/DAHC-matrix, dissolved in 50% (v/v) acetonitrile, after certain time points. The matrix-sample mixture was placed in a vacuum, which caused the proteins to crystallize together with the matrix. Using the mass spectrometer "LD-TOF System G2025" from Hewlett Packard, the relative amount of substrate and respective product peaks in the samples could be determined. Relative hydrolysis rates were depicted by plotting relative substrate concentration against time.

wild type DP4 [18] = target: T8, wild type DP4; assay: as above; design: key: +++: hydrolysis is comparable with the data obtained from the wild type enzyme; -: hydrolysis below 0,01% of the wild type enzyme; conditions: T = 37 °C, 100 mM Tris-HCl, pH 7.6, substrate concentration 25 μM
Protocol: as §3

DP4 variant N710Q [19] = target: T1, DP4 variant N710Q; assay: as above; conditions: T = 37 °C, 100 mM Tris-HCl, pH 7.6, substrate concentration 25 μM
Protocol: as §3

DP4 variant E206A [20] = target: T2, DP4 variant E206A; assay: as above; conditions: T = 37 °C, 100 mM Tris-HCl, pH 7.6, substrate concentration 25 μM
Protocol: as §3

DP4 variant N710A [21] = target: T3, DP4 variant N710A; assay: as above; conditions: T = 37 °C, 100 mM Tris-HCl, pH 7.6, substrate concentration 25 μM
Protocol: as §3

DP4 variant R125A [22] = target: T4, DP4 variant R125A; assay: as above; conditions: T = 37 °C, 100 mM Tris-HCl, pH 7.6, substrate concentration 25 μM
Protocol: as §3

DP4 variant E205A [23] = target: T5, DP4 variant E205A; assay: as above; conditions: T = 37 °C, 100 mM Tris-HCl, pH 7.6, substrate concentration 25 μM
Protocol: as §3

DP4 variant N710D [24] = target: T6, DP4 variant N710D; assay: as above; conditions: T = 37 °C, 100 mM Tris-HCl, pH 7.6, substrate concentration 25 μM
Protocol: as §3

T2 sequence (P27487 37-766 E206A): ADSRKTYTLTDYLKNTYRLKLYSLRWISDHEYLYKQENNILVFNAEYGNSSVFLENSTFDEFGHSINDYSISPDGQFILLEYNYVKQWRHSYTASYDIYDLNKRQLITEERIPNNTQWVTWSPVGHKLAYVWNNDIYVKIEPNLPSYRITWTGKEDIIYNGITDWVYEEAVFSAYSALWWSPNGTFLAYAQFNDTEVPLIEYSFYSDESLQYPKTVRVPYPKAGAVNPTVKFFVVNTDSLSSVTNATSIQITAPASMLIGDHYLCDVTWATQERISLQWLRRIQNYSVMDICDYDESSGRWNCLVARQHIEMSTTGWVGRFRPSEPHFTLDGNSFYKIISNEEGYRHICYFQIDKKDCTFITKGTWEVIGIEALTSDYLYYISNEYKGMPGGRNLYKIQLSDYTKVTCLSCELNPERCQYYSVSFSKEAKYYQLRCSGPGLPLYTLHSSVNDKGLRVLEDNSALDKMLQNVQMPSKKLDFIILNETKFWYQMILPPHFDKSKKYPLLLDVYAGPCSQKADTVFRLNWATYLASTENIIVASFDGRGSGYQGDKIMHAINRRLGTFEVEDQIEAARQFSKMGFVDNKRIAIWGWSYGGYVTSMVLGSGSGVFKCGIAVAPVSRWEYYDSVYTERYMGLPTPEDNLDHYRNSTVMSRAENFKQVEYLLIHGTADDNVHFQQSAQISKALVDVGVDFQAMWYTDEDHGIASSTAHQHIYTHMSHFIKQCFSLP
T6 sequence (P27487 37-766 N710D): as the sequence (P27487 37-766 E206A) above, with A170E, N674D counted along it
T5 sequence (P27487 37-766 E205A): as the sequence (P27487 37-766 E206A) above, with E169A, A170E counted along it
T4 sequence (P27487 37-766 R125A): as the sequence (P27487 37-766 E206A) above, with R89A, A170E counted along it
T3 sequence (P27487 37-766 N710A): as the sequence (P27487 37-766 E206A) above, with A170E, N674A counted along it
T7 sequence (P27487 37-766 R125K): as the sequence (P27487 37-766 E206A) above, with R89K, A170E counted along it
T1 sequence (P27487 37-766 N710Q): as the sequence (P27487 37-766 E206A) above, with A170E, N674Q counted along it
T8 sequence (P27487 37-766): as the sequence (P27487 37-766 E206A) above, with A170E counted along it

Compound	kcat (DP4 variant R125A [12]) [s⁻¹]	kcat (DP4 variant R125K [15]) [s⁻¹]	kcat (wild type DP4 [16]) [s⁻¹]	Hydrolysis of peptide hormone in comparison to the DP4 wild type enzyme (DP4 variant R125K [17])	Hydrolysis of peptide hormone in comparison to the DP4 wild type enzyme (wild type DP4 [18])	Hydrolysis of peptide hormone in comparison to the DP4 wild type enzyme (DP4 variant N710Q [19])	Hydrolysis of peptide hormone in comparison to the DP4 wild type enzyme (DP4 variant E206A [20])	Hydrolysis of peptide hormone in comparison to the DP4 wild type enzyme (DP4 variant N710A [21])	Hydrolysis of peptide hormone in comparison to the DP4 wild type enzyme (DP4 variant E205A [23])	Hydrolysis of peptide hormone in comparison to the DP4 wild type enzyme (DP4 variant N710D [24])	other results
CC[C@H](C)[C@H](NC(=O)[C@@H]1CCCN1C(=O)[C@@H](N)C(C)(C)C)C(N)=O [t-Bu-Gly-Pro-Ile-NH2, t-Butyl-Gly-Pro-Ile-NH2] (H-[Tle]-Pro-Ile-NH2)	–	–	–	–	–	–	–	–	–	–	IC50 (DP4 variant N710Q [1]): > 10 mM; IC50 (DP4 variant E206A [2]): > 10 mM; IC50 (DP4 variant N710A [3]): 140 µM; IC50 (DP4 variant R125A [4]): 80 µM; IC50 (DP4 variant E205A [5]): 1300 µM; IC50 (DP4 variant N710D [6]): 400 µM; IC50 (DP4 variant R125K [7]): 53 µM; IC50 (wild type DP4 [8]): 6.7 µM
NP Y: physiological DP4 substrate, peptide hormone, proline in P1 position (H2N-Y-P-S…)	23 ± 0.9	32 ± 0.5	37 ± 2.7	+++	+++	–	–	–	–	–	Km (DP4 variant N710Q [9]): 510 µM; kcat (DP4 variant N710Q [9]): 2.0 ± 0.32 s⁻¹; Km (DP4 variant E206A [10]): 98 µM; Km (DP4 variant N710A [11]): 83 µM; kcat (DP4 variant N710A [11]): 1.8 ± 0.08 s⁻¹; Km (DP4 variant R125A [12]): 150 µM; Km (DP4 variant E205A [13]): 180 µM; kcat (DP4 variant E205A [13]): 11 ± 0.7 s⁻¹; Km (DP4 variant N710D [14]): 190 µM; kcat (DP4 variant N710D [14]): 12 ± 0.9 s⁻¹; Km (DP4 variant R125K [15]): 52 µM; Km (wild type DP4 [16]): 13 µM
PACAP38: physiological DP4 substrate, peptide hormone, serine in P1 position (H2N-H-S-Q…)	–	–	–	- (hydrolysis below 0,01% of the wild type enzyme)	+++	- (hydrolysis below 0,01% of the wild type enzyme)	- (hydrolysis below 0,01% of the wild type enzyme)	- (hydrolysis below 0,01% of the wild type enzyme)	- (hydrolysis below 0,01% of the wild type enzyme)	- (hydrolysis below 0,01% of the wild type enzyme)	Hydrolysis of peptide hormone in comparison to the DP4 wild type enzyme (DP4 variant R125A [22]): - (hydrolysis below 0,01% of the wild type enzyme)
glucose-dependent insulinotropic peptide [GIP]	0.16 ± 0.08	0.88 ± 0.08	3.9 ± 0.2	–	+++	- (hydrolysis below 0,01% of the wild type enzyme)	- (hydrolysis below 0,01% of the wild type enzyme)	- (hydrolysis below 0,01% of the wild type enzyme)	- (hydrolysis below 0,01% of the wild type enzyme)	- (hydrolysis below 0,01% of the wild type enzyme)	–
